Assay results as given in patent publication US20180044422A1, “TREATING SOLID TUMOR BY TARGETING DECTIN-1 SIGNALING” (New York University, priority 2016, published 2018).

Key:
[1] = molecular target: T1, murine Dectin-1 (Mus musculus, UniProt Q6QLQ4); experiment: Galectin-coated ELISA with murine Dectin-1 IgG Fc; format: binding; conditions: galectin-coated plates; Galectin-3/-4/-9 comparison at 2.5 μg/ml Dectin-1 IgG Fc
T1 construct: purchased InvivoGen fc-mdec1a
T1 sequence (Q6QLQ4 71-244 limits assumed): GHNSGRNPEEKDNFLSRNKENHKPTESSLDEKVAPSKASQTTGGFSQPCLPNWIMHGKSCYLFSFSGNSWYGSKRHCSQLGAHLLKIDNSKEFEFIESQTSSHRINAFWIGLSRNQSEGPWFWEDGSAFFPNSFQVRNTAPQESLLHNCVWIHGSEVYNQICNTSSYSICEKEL
Method: (§1) To investigate if Galectin-9 can bind with Dectin-1, Protein G-magnet beads (2 ml; Dynabeads) were loaded with Dectin-1 IgG Fc (1 mg) or control IgG Fc before washing and blocking. Subsequently, beads were incubated with recombinant Galectin-9 ([…]; R&D Systems) for 30 min, washed, and stained with PE-conjugated anti-Galectin-9 (Biolegend, San Diego Calif.). Galectin-9 specific staining was determined by flow cytometry. To investigate the interaction between Galectin-9 and Dectin-1 by ELISA, plates (Maxisorp, Nunc, St. Louis, Mo.) were coated with recombinant mouse Galectin-9 ([…]; R&D Systems, Minneapolis, Minn.), Galectin-3, or Galectin-4 (both […]; Biolegend) for 16 hours at 4° C., blocked with 1% BSA/PBS for 1 hour, and incubated with increasing doses of Dectin-1 IgG Fc or control IgG Fc for 2 hours. The Galectin-bound Dectin-1 IgG Fc was detected with anti-IgG-HRP. For affinity precipitation experiments, protein G-beads were loaded with Dectin-1 IgG Fc and were then incubated with the extract of 6 month old KC pancreata. Bead-bound precipitates were resuspended with loading buffer, resolved by SDS-PAGE under reduced conditions for western blotting using mAbs specific for Galectin-9. To determine whether Galectin-9 induces Dectin-1 signaling, the Dectin-1 reporter HEK293 cell line^16 (Invivogen) was treated with recombinant Galectin-9 (1-10 μg/ml; R&D Systems), d-Zymosan (1-10 μg/ml), or Curdlan (10-100 μg/ml; both Invivogen). Dectin-1 signaling was measured by detection of secreted embryonic alkaline phosphatase. In other experiments, WT and Dectin-1^−/− splenic macrophages were treated in vitro with recombinant Galectin-9 (10 ug/ml). Syk phosphorylation was measured by flow cytometry at 3 hours.
(§2) Non-pathogen derived Dectin-1 ligands have not been well-characterized. […] Bead-IgG Fc complexes were incubated with recombinant Galectin-9 and then labeled with a fluorescently-conjugated αGalectin-9 mAb and tested for fluorescence by flow cytometry. […]

[2] = system: bone-marrow derived macrophages (BMDM); experiment: Dectin-1 expression in bone-marrow derived macrophages; format: cell-based, mouse; conditions: cytokine added to day 8 BMDM cultures for 24h
[3] = system: human Dectin-1; experiment: Galectin-9-coated ELISA with human Dectin-1 IgG Fc; format: binding; conditions: Galectin-9 coated plates, increasing doses
Sequence of human Dectin-1 (Q9BXN2 114-247 limits assumed): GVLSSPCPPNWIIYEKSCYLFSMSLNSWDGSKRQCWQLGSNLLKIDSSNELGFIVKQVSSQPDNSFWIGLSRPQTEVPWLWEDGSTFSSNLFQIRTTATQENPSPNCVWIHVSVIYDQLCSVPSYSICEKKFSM
Method: (§3) To investigate if Galectin-9 can bind with Dectin-1, Protein G-magnet beads (2 ml; Dynabeads) were loaded with Dectin-1 IgG Fc (1 mg) or control IgG Fc before washing and blocking. Subsequently, beads were incubated with recombinant Galectin-9 ([…]; R&D Systems) for 30 min, washed, and stained with PE-conjugated anti-Galectin-9 (Biolegend, San Diego Calif.). Galectin-9 specific staining was determined by flow cytometry. To investigate the interaction between Galectin-9 and Dectin-1 by ELISA, plates (Maxisorp, Nunc, St. Louis, Mo.) were coated with recombinant mouse Galectin-9 ([…]; R&D Systems, Minneapolis, Minn.), Galectin-3, or Galectin-4 (both […]; Biolegend) for 16 hours at 4° C., blocked with 1% BSA/PBS for 1 hour, and incubated with increasing doses of Dectin-1 IgG Fc or control IgG Fc for 2 hours. The Galectin-bound Dectin-1 IgG Fc was detected with anti-IgG-HRP. […] Dectin-1 signaling was measured by detection of secreted embryonic alkaline phosphatase. […] Syk phosphorylation was measured by flow cytometry at 3 hours.
as §2

[4] = molecular target: T2, Dectin-1 IgG Fc (Mus musculus, UniProt Q6QLQ4); experiment: Protein G bead / flow cytometry Galectin-9-Dectin-1 binding; conditions: recombinant Galectin-9, flow cytometry
T2 construct: purchased InvivoGen fc-mdec1a
T2 sequence (Q6QLQ4 71-244 limits assumed): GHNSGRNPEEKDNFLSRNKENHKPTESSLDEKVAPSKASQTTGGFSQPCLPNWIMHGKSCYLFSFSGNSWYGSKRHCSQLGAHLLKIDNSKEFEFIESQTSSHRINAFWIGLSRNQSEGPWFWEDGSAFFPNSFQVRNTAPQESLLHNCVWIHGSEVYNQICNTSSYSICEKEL
Method: as §3, §2

[5] = system: Dectin-1; experiment: Dectin-1 reporter HEK293 cell line (secreted embryonic alkaline phosphatase); format: cell-based; conditions: low and high doses (1-10 μg/ml)
Method: as §1, with “To determine whether Galectin-9 induces Dectin-1 signaling, the Dectin-1 reporter HEK293 cell line^16 (Invivogen) was treated with recombinant Galectin-9 (1-10 μg/ml; R&D Systems), d-Zymosan (1-10 μg/ml), or Curdlan (10-100 μg/ml; both Invivogen).” left out, “In other experiments, WT and Dectin-1^−/− splenic macrophages were treated in vitro with recombinant Galectin-9 (10 ug/ml).” left out

[6] = system: Dectin-1; experiment: Syk phosphorylation in WT and Dectin-1-/- macrophages; format: cell-based, mouse; conditions: 10 ug/ml for 3 hours, WT vs Dectin-1-/- macrophages, flow cytometry
Method: as §1, with “To determine whether Galectin-9 induces Dectin-1 signaling, the Dectin-1 reporter HEK293 cell line^16 (Invivogen) was treated with recombinant Galectin-9 (1-10 μg/ml; R&D Systems), d-Zymosan (1-10 μg/ml), or Curdlan (10-100 μg/ml; both Invivogen).” left out, “In other experiments, WT and Dectin-1^−/− splenic macrophages were treated in vitro with recombinant Galectin-9 (10 ug/ml).” left out

B1: Galectin-4: recombinant Galectin-4 (Biolegend) coated on ELISA plates (protein, UniProt Q8K419 1-326, looked up)
Galectin-4: MAYVPAPGYQPTYNPTLPYKRPIPGGLSVGMSVYIQGMAKENMRRFHVNFAVGQDDGADVAFHFNPRFDGWDKVVFNTMQSGQWGKEEKKKSMPFQKGKHFELVFMVMPEHYKVVVNGNSFYEYGHRLPVQMVTHLQVDGDLELQSINFLGGQPAAAPYPGAMTIPAYPAGSPGYNPPQMNTLPVMTGPPVFNPRVPYVGALQGGLTVRRTIIIKGYVLPTARNFVINFKVGSSGDIALHLNPRIGDSVVRNSFMNGSWGAEERKVAYNPFGPGQFFDLSIRCGMDRFKVFANGQHLFDFSHRFQAFQMVDTLEINGDITLSYVQI
binding of murine Dectin-1 IgG Fc on ELISA [1]: did not avidly bind

B2: IL-12: cytokine added to BMDM cultures (protein, UniProt P43431 23-215; P43432 23-335, looked up)
Interleukin-12 subunit alpha: RVIPVSGPARCLSQSRNLLKTTDDMVKTAREKLKHYSCTAEDIDHEDITRDQTSTLKTCLPLELHKNESCLATRETSSTTRGSCLPPQKTSLMMTLCLGSIYEDLKMYQTEFQAINAALQNHNHQQIILDKGMLVAIDELMQSLNHNGETLRQKPPVGEADPYRVKMKLCILLHAFSTRVVTINRVMGYLSSA
Interleukin-12 subunit beta: MWELEKDVYVVEVDWTPDAPGETVNLTCDTPEEDDITWTSDQRHGVIGSGKTLTITVKEFLDAGQYTCHKGGETLSHSHLLLHKKENGIWSTEILKNFKNKTFLKCEAPNYSGRFTCSWLVQRNMDLKFNIKSSSSSPDSRAVTCGMASLSAEKVTLDQRDYEKYSVSCQEDVTCPTAEETLPIELALEARQQNKYENYSTSFFIRDIIKPDPPKNLQMKPLKNSQVEVSWEYPDSWSTPHSYFSLKFFVRIQRKKEKMKETEEGCNQKGAFLVEKTSTEVQCKGGNVCVQAQDRYYNSSCSKWACVPCRVRS
Dectin-1 expression in BMDM [2]: did not influence Dectin-1 expression

B3: Galectin-9: recombinant Galectin-9 (R&D Systems), lectin identified as Dectin-1 ligand (protein)
chain: MALFSAQSPYINPIIPFTGPIQGGLQEGLQVTLQGTTKSFAQRFVVNFQNSFNGNDIAFHFNPRFEEGGYVVCNTKQNGQWGPEERKMQMPFQKGMPEFELCFLVQRSEFKVMVNKKFVQYQHRVPYHLVDTIAVSGCLKLSFITFQNSAAPVQHVFSTVQFSQPVQFPRTPKGRKQKTQNFRPAHQAPMAQTTIHMVHSTPGQMFSTPGIPPVVYPTPAYTIPFYTPIPNGLYPSKSIMISGNVLPDATRFHINLRCGGDIAFHLNPRFNENAVVRNTQINNSWGQEERSLLGRMPFSRGQSFSVWIICEGHCFKVAVNGQHMCEYYHRLKNLQDINTLEVAGDIQLTHVQT
binding of human Dectin-1 IgG Fc on ELISA [3]: dose-dependent manner | binding to bead-bound Dectin-1 IgG Fc [4]: avidly ligated | Dectin-1 activation (NF-κB signaling) in reporter cells [5]: induced NF-κB signaling | Syk phosphorylation [6]: activated Syk in a Dectin-1-dependent manner | binding of murine Dectin-1 IgG Fc on ELISA [1]: dose-dependent manner

B4: Galectin-3: recombinant Galectin-3 (Biolegend) coated on ELISA plates (protein, UniProt P16110 2-264, looked up)
Galectin-3: ADSFSLNDALAGSGNPNPQGYPGAWGNQPGAGGYPGAAYPGAYPGQAPPGAYPGQAPPGAYPGQAPPSAYPGPTAPGAYPGPTAPGAYPGQPAPGAFPGQPGAPGAYPQCSGGYPAAGPYGVPAGPLTVPYDLPLPGGVMPRMLITIMGTVKPNANRIVLDFRRGNDVAFHFNPRFNENNRRVIVCNTKQDNNWGKEERQSAFPFESGKPFKIQVLVEADHFKVAVNDAHLLQYNHRMKNLREISQLGISGDITLTSANHAMI
binding of murine Dectin-1 IgG Fc on ELISA [1]: did not avidly bind
